These results are taken from article PMC7139957.

For this test, the target named is laminin-111 (UniProt P19137). As to the kind of experiment: AFM single-molecule force spectroscopy; integrin coupled to PEG-functionalized cantilever, laminin-111 (3 µg/mL) coated on mica; contact 1 s, retraction 300 nm/s; rupture force of the last contact.

The substance “soluble recombinant integrin α7hiβ1 ectodomains (hinge mutant, C604 and C610 replaced by alanine), heterodimerized with the zipper domains of Fos and Jun (from UniProt P05556 21-728) (complex)” displayed a rupture force of 16 pN.
The substance “soluble recombinant integrin α7wtβ1 ectodomains, heterodimerized with the zipper domains of Fos and Jun (from UniProt P05556 21-728) (complex)” gave a rupture force of 30 pN.
